Test results published in US20060141546A1, “Bacterial test method by glycated label binding” (priority 2002, published 2006).

Experiments:
E. coli = test: Membrane (Loprodyne) separation of bacteria bound ALP (Example 6, Table 4); format: binding
Protocol: Bacteria bound to alkaline phosphatase (ALP) can be separated using a membrane (low protein binding Nylon 66 Loprodyne) on backed microtiter plates (Nunc Nalge International).
The loprodyne-membrane-backed plates were treated with 1 or 2% detergent (Tween 20 or TritonX305) in water or buffers (TBS: Tris, 25 mM, pH 7.6 containing 150 mM NaCl or KCO3: 0.1M, pH 9.6) overnight at room temperature. Blocking solutions were vacuum filtered. […] The combined solution was incubated for 15 min at 37° C. on a shaker and then added to the loprodyne-membrane-backed plate.
The solution was vacuum filtered leaving bacteria adhered on the membrane and then washed twice with 2% Tween20 in water. To the washed membrane, 200 μl of H2O with 50 μl Glycine (0.05M, pH 10.4) and containing 1 mM PNPP were added and the color formed due to the bacteria bound ALP read at 405 nm.
The separation of E. Coli with bound ALP from unbound ALP is shown by a size exclusion membrane in Example 6 and by centrifugation in Examples 1-5. The size of E. Coli is 1×1×2 μm and any membrane, filter or device trapping particles of this size would be acceptable. These include microfluidic devices, filters, column chromatography and chromatography strips. The mass of E. Coli is 1.6×10^−12 gm/cell and any membrane, filter or device trapping a mass of this size would be also acceptable.

[1] = test system: gram negative and positive bacteria; test: Bacteria assay by binding of intestinal ALP, all strains (Example 1); conditions: for ALP binding to bacterial strains tested: FIG. 8, Table 1
Protocol: (§1) Bacterial cells ([…] to 10^8 cells/mL) were washed twice with water after centrifugation to separate the cells into a packed pellet from supernatant liquid. The washed cells in pellet form were suspended in 40 μL water and 10 μL of aqueous bovine intestinal alkaline phosphatase (ALP) was added (2 μg or […]). The mixture was left at room temperature for 30 minutes and then centrifuged, after which the bacterial pellets were washed with water 4-5 times (50 μL). All the washing supernatants were combined. A blank without cells was diluted in the same way. The final pellets were suspended in 50 μl water and both supernatants and cell suspensions were assayed for detection of ALP binding using 2.5 μl of 0.005 M para-nitrophenol phosphate (PNPP) in Tris or EPPS buffer at pH 7.5. The hydrolysis of the substrate results in yellow (PNPP) or blue-green (BCIP) color that is directly proportional to the amount of ALP bound to the bacteria. Alkaline phosphatase (ALP) activity was tested using common substrates such as BCIP (bromo-chloro-indolyl-phosphate) forming a blue/green color in Tris buffer, pH 7.5. After 10 minutes at room temperature the samples were read in a plate reader (Biotek Powerwave Absorbance Reader) at a wavelength of 405 nm. The parallel set of bacteria was run without addition of ALP as controls.
(§2) The bacteria used to illustrate the invention represent the extremes of gram positive (S. facaelis) and gram negative (E. coli) bacteria. […] The nature of the difference in the cell walls is greatest between the gram negative and positive forms of bacteria.

Lactobacillus = test: ALP binding compared to Sf (Table 1)
Protocol: as §1, §2

Enterococcus sp. = test: ALP binding compared to Sf (Table 1)
Protocol: as §1, §2

Streptococcus viridans = test: ALP binding compared to Sf (Table 1)
Protocol: as §1, §2

[2] = test system: Staphylococcus aureus & saprophyicus; test: ALP binding compared to Sf (Table 1)
Protocol: as §1, §2

[3] = test system: Yeasts including Candida albicans; test: ALP binding compared to Sf (Table 1)
Protocol: as §1, §2

[4] = test system: Coagulase negative staphylococcus sp.; test: ALP binding compared to Sf (Table 1)
Protocol: as §1, §2

Group B streptococcus = test: ALP binding compared to Sf (Table 1)
Protocol: as §1, §2

B1: ALP: bovine intestinal alkaline phosphatase, glycoprotein enzyme that binds bacteria and serves as label (protein, UniProt P19111 20-506, looked up)
Intestinal-type alkaline …: LVPVEEEDPAFWNRQAAQALDVAKKLQPIQTAAKNVILFLGDGMGVPTVTATRILKGQMNGKLGPETPLAMDQFPYVALSKTYNVDRQVPDSAGTATAYLCGVKGNYRTIGVSAAARYNQCKTTRGNEVTSVMNRAKKAGKSVGVVTTTRVQHASPAGAYAHTVNRNWYSDADLPADAQMNGCQDIAAQLVNNMDIDVILGGGRKYMFPVGTPDPEYPDDASVNGVRKRKQNLVQAWQAKHQGAQYVWNRTALLQAADDSSVTHLMGLFEPADMKYNVQQDHTKDPTLQEMTEVALRVVSRNPRGFYLFVEGGRIDHGHHDDKAYMALTEAGMFDNAIAKANELTSELDTLILVTADHSHVFSFGGYTLRGTSIFGLAPSKALDSKSYTSILYGNGPGYALGGGSRPDVNDSTSEDPSYQQQAAVPQASETHGGEDVAVFARGPQAHLVHGVEEETFVAHIMAFAGCVEPYTDCNLPAPTTATSIPD
Bacteria Binding to ALP (O.D. at 405 nm) (E. coli; No Bacteria, ALP concentration 1.0 mU): 0.04 O.D. | Bacteria Binding to ALP (O.D. at 405 nm) (E. coli; No Bacteria, ALP concentration 2.0 mU): 0.05 O.D. | Bacteria Binding to ALP (O.D. at 405 nm) (E. coli; No Bacteria, ALP concentration 5.0 mU): 0.16 O.D. | Bacteria Binding to ALP (O.D. at 405 nm) (E. coli; Plus Bacteria, ALP concentration 1.0 mU): 0.13 O.D. | Bacteria Binding to ALP (O.D. at 405 nm) (E. coli; Plus Bacteria, ALP concentration 2.0 mU): 0.30 O.D. | Bacteria Binding to ALP (O.D. at 405 nm) (E. coli; Plus Bacteria, ALP concentration 5.0 mU): 0.83 O.D. | ALP binding to bacterial strains tested [1]: binding occurred to all other gram negative and positive bacteria | ALP binding to bacterial strains tested ([1]; listed as intestinal ALP): binding to all bacterial strains tested | amount of ALP bound or activity generated versus amount of bacteria cells ([1]; FIG. 9): directly proportional to the amount of bacteria cells present | difference of ALP binding between strains relative to S. facaelis or E. coli ([1]; changes of strain among gram negative and positive bacteria): ≤ 12% | ALP binding relative to sf. (Lactobacillus): 100% | ALP binding relative to sf. (Enterococcus sp.): 100% | ALP binding relative to sf. (Streptococcus viridans): 102% | ALP binding relative to sf. [2]: 100% | ALP binding relative to sf. [3]: 93% | ALP binding relative to sf. [4]: 88% | ALP binding relative to sf. (Group B streptococcus): 96%
